Assay results as given in the supplement of paper PMC12042874.
± gives the uncertainty stated by the source.

assay: amyloid nucleation score (Sup35N fusion, yeast selection) (log enrichment); library NNK3; higher = more nucleation; inactive = no reads after selection
Summary of the method: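 Output and input plasmid inserts were sequenced by Illumina after psi-negative yeast carrying Sup35N fused to peptides of 20 random codons had been induced 24 hours with 100 μM copper sulfate and grown 7 days at 30°C on medium lacking adenine and uracil. The nucleation score is the DiMSum log enrichment of output over input reads, centred on the mode score of non-aggregating sequences. Sequences with under 100 input reads were excluded.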

Substance	amyloid nucleation score
VEMATKLQVKVIERALNEGD	inactive
NLNGFYSRGVIFR	inactive
TFHLRDCKSF	0.133 ± 1
RVNRCLLMMVDALYQNCTLN	inactive
WCPTGEYRKCYNMSFARW	inactive
DLPVGLWKQESLSAGMYNSW	inactive
YVGFRAQHTNEDDGTTVCRP	inactive
GTSAH	inactive
PTSVY	0.481 ± 0.32
CCNMYVSFTCWHRRRSFS	1.23 ± 0.13
FLSDSLNARS	inactive
FWLYYNFQFLDDC	inactive
WAIGQLYFMRILV	inactive
MNTSDSARKSRYRARG	inactive
LKLFLRVYCIDI	0.535 ± 0.23
MIACNSRRCI	inactive
RCFVPINGK	inactive
TIEYLAGYFILMSQILGGDV	inactive
MLPFTLMQPNVLFWMIDWED	inactive
GNLNGILFRISRQKEM	inactive
MAFYQHDILTMFLYRFRDAR	inactive
SCSFRVYYFRLYFMLRSGSV	-0.743 ± 0.82
GRDCICDLRMETIGDTFTGW	inactive

Substance	amyloid nucleation score
GENWDCTCVADQCRNWTCYL	0.282 ± 0.81
KRLVMWPRLRSRYWHKRAEQ	inactive
SRYSYVYTSESLYRASVSSV	inactive
DIEYEY	inactive
DFKILKVHKSRSSNSGSEDW	inactive
PGISRNFVNGPRWSMFS	inactive
QIFLVKPMSDFSCNSSRYTL	-0.423 ± 0.76
MGVYAINVRYSAERVMLVAP	inactive
MNLDVWSFMSMFNSFRVWVQ	inactive
IFYCLSYLGTSVVEIHCLYA	inactive
RLFKSGEFDFCYIRGHCCSV	inactive
YMTCTR	inactive
VNWSSFIFESTSIFS	0.476 ± 0.28
MTFTCFVRFPTVRYNAKGCL	inactive
ETGLLFGWDRVSSYWGVLKT	inactive
RTKYSQYHTGVSFDGSMHYS	inactive
LCSNLSGDVYELVSHFPGGD	inactive
YFGKAMHLLGYSFETGLDWS	inactive
SGGNLWGFVDTLFIGMRIRY	inactive
PCRPGRSRVVHS	0.614 ± 0.27
GKDVSVGEVFKPLVSVRRVN	inactive
TSILMPASDVLKMQVVPWLS	0.904 ± 0.16
SNRQSSGISF	-0.784 ± 2.5

Substance	amyloid nucleation score
RLLFFLDRKDLDAGGVFSKG	inactive
SKTVDNGKMRKDWLGRQPWK	-0.362 ± 0.51
DEFEMLLEGWVSVVGMMTRE	inactive
HFPSFFSIIPYRACNTACSA	-0.984 ± 1.4
ALMCIHRLCPNIVPDQ	inactive
LRVCTELRMVLDISYNVGNF	0.68 ± 0.18
HVARFMLNRYLLFGEPYMLK	inactive
CTSAKIICHQSMRTRCTEQD	inactive
RYEVPGTSFLNM	inactive
SAGISYFCDILKSTYAVFAV	inactive
GEWLCVFFSWPSGSPIVPWE	inactive
QATFGWTANSSLFFSRDFLA	inactive
CSQNT	inactive
MAPVGL	inactive
NLTGCMDLC	0.853 ± 0.19
GYAHLLMANLRWSSTRLA	inactive
CGTSHVMFWHVPRGVLKRMY	inactive
KRFGFVNFNCYDLYIKFEIM	1.28 ± 0.13
TLPKVMFVIQNYGFFSGFTL	1.32 ± 0.079
SVDSREMHSVCCKSLLFGFD	inactive
SNNLKLAPGSWVPYSDRIHR	inactive
GRGHGEGTRLASSTIVIMHV	-0.395 ± 0.61
SGMLDWDWVSRVSIGVCKVW	inactive

Substance	amyloid nucleation score
QESLDANFGLIVCYADLAED	inactive
MFAADDLIPTKIVGSCF	inactive
WIYYNAVFHACCVYELSNNA	2.85 ± 0.067
YKCYMFANYGIPVVVLFVVL	inactive
MDGGASSREVAWWSLSNRGA	inactive
FNYKARYSNPVRDAIYWLQI	inactive
YQNVMWLC	inactive
PRVFGRVTSRMFLDFVLNF	0.982 ± 0.14
TYSRFEISCMCWASYTIK	0.775 ± 0.22
TYAIYVDSGIFLEVHGNLYM	2.64 ± 0.08
HYLWCVYII	inactive
IFTVCHVGSACSGNCTGQ	3.01 ± 0.06
WVFISKQLVNDVAWPVLCAL	-0.17 ± 0.85
SCYTMAFPVLWVHAQYCMNK	inactive
NTPLWAFPEVLSDHNFN	inactive
NPFLSCKNYGICSYVGTNVF	1.09 ± 0.096
NELGEIAYGCGFRVVCRCMR	inactive
SDYLFSQRGFVGSASCVLVM	inactive
SRRLVKESDDRGCCRGLFWD	inactive
TYVGVYALIF	-1.12 ± 1.5
YRYVNN	inactive
VRTNPGGFWLNLCQQTQKES	inactive
MVRFMLFMK	inactive

Substance	amyloid nucleation score
FHGKNVF	inactive
HQARIYVSYYPVLSFDPFRK	2.06 ± 0.074
TVDNHGSA	inactive
FKFKERDHEWYVWFKLKHKS	inactive
GEISWDC	0.283 ± 0.3
NIVQYVWVDDWVFRCRCGAK	3.15 ± 0.069
ALAMTFVNIDKSFFFNVYSM	2.89 ± 0.069
IRGYFIPCGETLDEDLLFKQ	inactive
TCWFGIQLSGL	0.651 ± 0.2
ILPGL	inactive
FILSVSYIRVCGARC	0.097 ± 0.48
NFGQNCN	-0.48 ± 0.57
HISWFIFLCGGSFDSVMLAN	inactive
DSCQKVVWIGSGEVRKAWRY	inactive
WSGNCFNQSKLAWYDHYHQW	inactive
IDCLLLFSIGEVLKSGNNSR	0.335 ± 0.17
SSTLHRQIRRGVTVNELLRG	inactive
TSCGISSSAGFSVFMSEGAK	0.692 ± 0.13
YPLASYGLMCGFETDYPGAA	inactive
VSNVSGSIHWGNFCAMNIAV	inactive
NFFWFYWIWKSSGGYTGWLL	inactive
CYMFRDDRIVYHDGLNRHCK	inactive
FFCRKAHLMVVFFSSMRMTG	inactive

Substance	amyloid nucleation score
KQSMRQSYSVPPEEVDKQGR	inactive
GWKAPLTLRRTLSALDFVLY	0.371 ± 0.38
QSQWFGIVFMLNIMRSRDFR	0.645 ± 0.12
SQFTFNCTIFNGL	2.65 ± 0.064
VNKFNFNIVIFSNWNMYQ	3.36 ± 0.062
INMALYSSLNLVG	1.32 ± 0.078
PIPHML	-0.592 ± 0.75
SYLCSGWDRSWAGISCEHSE	inactive
DFSKVNDQTADSYMWCSVDS	inactive
RHRASGLFP	inactive
SNGNMLRSYVSTPCDRGKGS	inactive
IENNSPLSSFLGYGKCIP	inactive
WFMVIAVCMSAFESKLARFH	inactive
ALSRMGEFEDYCLTMGKKVF	inactive
ILIRREFGLFTNFSMYGSKA	inactive
NDYCPLYIGHVGRFHPAKDV	inactive
STLGTRSRDFLMIFSNRSTE	inactive
SQKRPMCFSCWTHMVFHSWF	-0.257 ± 0.46
MEGDLSVADSYGDQ	inactive
YQIFYSEVSFLMAG	inactive
HSLFIFNFGCL	2.96 ± 0.054
KKGGVVINVSTNRIRTLTCP	inactive
VYTTS	inactive

Substance	amyloid nucleation score
LSAMLDTDAYRGLW	inactive
VFLSAVAGDYIV	inactive
HRTTWLIWPLS	inactive
TGEQECLKQMSISGNRIFVV	inactive
MRAIMWFINKDLLLTCGDDS	inactive
AQYLLYINDPCTCVVATPCR	inactive
VLPRRTLACIKRTNKASETV	inactive
LLMFHCQMMSLGGYTSVSAR	inactive
NSSLCYFENLTTAIFVMEWI	inactive
WIKGVRIRPL	inactive
TSCLNKKHAVGFSCVFYH	inactive
LSCCSSGGGSTPVIAPTYYE	inactive
SVNWWTVLCVHCPGYKNLLI	0.465 ± 0.26
EYYGRVLSLTVTNIHFFRVF	inactive
LYCECYSSLLCYGRLPAKTR	inactive
RDYFAYNCMVWMGTIQLYPG	1.83 ± 0.056
YTWLVTVTDDGCRFEFSCEF	inactive
TINDLSCGASRDGWMPVYS	inactive
LFQIM	inactive
SMFKLMRP	inactive
RLWLVYAKPGTRRCSRRMGC	inactive
